Source: PMC7043342

How the values were obtained:
[1] = target: SPD_1495 (33-442 AA), recombinant, GST tag removed (S. pneumoniae D39); test: SPR; SPD_1495 (30 ug/ml) fixed on a NanoGold-COOH sensor chip by capture coupling; ComE^D58E injected at 100, 200, 400, 800 and 1,600 nmol/liter in 0.01 M PBS; Open-SPR (Nicoya), 25°C; association and dissociation 300 s each; one-to-one diffusion-corrected model, TraceDrawer
[2] = target: T1, SPD_1495 (Streptococcus pneumoniae D39) (UniProt A0A0H2ZL68); test: EMSA
T1 sequence: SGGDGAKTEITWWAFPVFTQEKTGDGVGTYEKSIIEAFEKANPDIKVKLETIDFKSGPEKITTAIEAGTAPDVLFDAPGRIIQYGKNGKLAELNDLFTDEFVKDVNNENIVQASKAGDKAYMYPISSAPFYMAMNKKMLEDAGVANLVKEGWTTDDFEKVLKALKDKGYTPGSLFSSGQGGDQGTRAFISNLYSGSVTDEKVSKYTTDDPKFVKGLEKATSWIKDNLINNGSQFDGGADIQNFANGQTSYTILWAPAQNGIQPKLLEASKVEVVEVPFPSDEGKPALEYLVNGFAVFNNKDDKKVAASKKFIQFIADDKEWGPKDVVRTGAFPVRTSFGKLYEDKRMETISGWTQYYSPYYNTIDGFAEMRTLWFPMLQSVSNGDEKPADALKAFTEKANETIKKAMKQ

Substance	Kd [1] [nM]	binding [2]
ComE^D58E, phosphomimetic mutant of the response regulator ComE (natural protein)	1550	
TACACATCTGCTTCTAAAATATTGTTAGAAAACGATTTGACTGTCCTGATCAATTTGTCATGTTCTTATTTCATTTTACTATATTTTTGGTTCGCGGGAAGTCTACTAAGATACTTAAAGATGCAGATAGTGAAAAAAGGTGTAGACATTACCGTAAAAAAGTGATATAATCGTAAGATGTTCAATGTATAGGTGTTAATCATGAGTAGACGTTTTAA (double strand) [Bio-cps (cps upstream promoter)]		no binding
